Measured values from patent US20240352438A1, “MEANS AND METHODS FOR DETOXIFYING OCHRATOXIN A” (DSM Austria GmbH, priority 2021, published 2024).
Where a chain is given by its changes, count along the chain named.

B1: 124 (protein)
chain: MTTRTRILTAFLSLLAANACAADAAPAAPHTVVLRAARMFDGASGKLVDHPQLTIVGNKIVRIAQGDKAEVPAGAEVVDLGDATLLPGFIDAHVHLSGQSSDNWYGDFFDNMMRFPAEQALYGAYYARITLEAGFTSVRDVGSTDWVALGLRNAIDAGKVPGPRMLVSNYAVGSTGGHADQDPIPPHKLPLAGPLQGVCNGPEECRAAVRYQIKYGANVIKFMPSGGVLSLSDPVDAPELSQDEMNAVIGESHAWGRKVAAHAHGDKAAKMAVAAGVDSIEHGSFIEDDTLRAMKAKNVYLVPTISAIAHVEEKIGYFPPVIAEKGRAAAAHLRQTFRHAVQIGVPIALGTDAGVGAHGSNAREFRYMVENGLTPAQALLAGTANAARLLGTFDRVGTLEAGKLADVVAVPGNPIADITVTERPLFVMKDGVVVRRDAVR
modifications: exemplary polypeptide
B2: 153 (protein)
chain: B1 chain with A171P, Y317T, F318Y
modifications: exemplary polypeptide
B3: 156 (protein)
chain: B1 chain with I184V, I308V, Y317T
modifications: exemplary polypeptide
B4: 152 (protein)
chain: B1 chain with A171P, I308V, Y317T
modifications: exemplary polypeptide
B5: 148 (protein)
chain: B1 chain with A179S, Y317T
modifications: exemplary polypeptide
B6: 127 (protein)
chain: B1 chain with K258Y, Y317T, G391R
modifications: exemplary polypeptide
B7: 151 (protein)
chain: B1 chain with A171P, I308A, Y317T
modifications: exemplary polypeptide
B8: 144 (protein)
chain: B1 chain with T144E, Y317T
modifications: exemplary polypeptide
B9: 137 (protein)
chain: B1 chain with S97N, Y317T
modifications: exemplary polypeptide
B10: 146 (protein)
chain: B1 chain with T144R, Y317T
modifications: exemplary polypeptide
B11: 136 (protein)
chain: B1 chain with S97D, Y317T
modifications: exemplary polypeptide
B12: 145 (protein)
chain: B1 chain with T144P, Y317T
modifications: exemplary polypeptide
B13: 154 (protein)
chain: B1 chain with A171P, Y317T, G354A
modifications: exemplary polypeptide
B14: 140 (protein)
chain: B1 chain with S97V, Y317T
modifications: exemplary polypeptide
B15: 141 (protein)
chain: B1 chain with G142A, Y317T
modifications: exemplary polypeptide
B16: 125 (protein)
chain: B1 chain with Y317T, F318Y
modifications: exemplary polypeptide
B17: 128 (protein)
chain: B1 chain with A36C, L85C, Y317T
modifications: exemplary polypeptide
B18: 139 (protein)
chain: B1 chain with S97T, Y317T
modifications: exemplary polypeptide
B19: 150 (protein)
chain: B1 chain with A171P, I184V, Y317T
modifications: exemplary polypeptide
B20: 138 (protein)
chain: B1 chain with S97P, Y317T
modifications: exemplary polypeptide
B21: 157 (protein)
chain: B1 chain with I184V, Y317T, F318Y
modifications: exemplary polypeptide
B22: 143 (protein)
chain: B1 chain with T144D, Y317T
modifications: exemplary polypeptide
B23: 155 (protein)
chain: B1 chain with I184V, I308A, Y317T
modifications: exemplary polypeptide

assay: OTA detoxification activity assay (specific activity, fluorescence reduction ex/em 390/450 nm); type: biochemical; settings: pH 6.0; SEQ ID NO: 1 = 100%
Method in brief: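 Recombinant enzyme preparation with 200 ng/mL OTA in 100 mM sodium phosphate, at pH 6.0 and pH 7.5, 37° C. Degradation followed as the fall in fluorescence at ex/em 390/450 nm. Specific activity taken from the initial linear slope; one unit degrades 1 μmol OTA per min at a starting OTA of […].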

Molecule	Specific OTA detoxification activities in % compared to the enzyme of SEQ ID NO: 1, pH 6.0
B1	87%
B2	72%
B3	144%
B4	65%
B5	40%
B6	78%
B7	75%
B8	78%
B9	86%
B10	172%
B11	64%
B12	101%
B13	38%
B14	118%
B15	138%
B16	58%
B17	67%
B18	141%
B19	89%
B20	46%
B21	78%
B22	86%
B23	116%

same assay, conditions: pH 7.5; SEQ ID NO: 1 = 100%

Molecule	Specific OTA detoxification activities in % compared to the enzyme of SEQ ID NO: 1, pH 7.5
B1	78%
B2	77%
B3	109%
B4	74%
B5	19%
B6	82%
B7	86%
B8	95%
B9	93%
B10	112%
B11	48%
B12	90%
B13	38%
B14	120%
B15	123%
B16	94%
B17	73%
B18	88%
B19	62%
B20	29%
B21	63%
B22	84%
B23	124%

assay: Enzymatic activity comparison: activity remaining after 65° C. for 10 min at pH 6.0, relative to SEQ ID NO: 1; type: physicochemical; settings: not given
Experimental: To compare the temperature behavior and thermostability of selected enzymes to one another, enzyme was incubated at 65° C. for 10 min at pH 6.0. The enzymatic activity remaining after incubation was compared to the remaining activity of the enzyme of SEQ ID NO: 1 after incubation, the latter being set to 100%, see Table 16.

Molecule	Enzymatic activity remaining after incubation, compared to SEQ ID NO: 1 (set to 100%)
B1	42%
B2	34%
B3	34%
B4	38%
B5	35%
B6	64%
B7	30%
B8	28%
B9	48%
B10	45%
B11	36%
B12	47%
B13	32%
B14	34%
B15	55%
B16	100%
B17	84%
B18	40%
B19	22%
B20	27%
B21	73%
B22	21%
B23	35%
